Test system: tau

Gleevec-resistant abl1 (T3611 form)
tyrosine phosphorylation of tau in the presence of Gleevec (western blot, ELISA): In the presence of Gleevec, both forms could phosphorylate tau

Source: patent publication US20070134724
